Results taken from article PMC6900475.

Tests used:
[1] = biological target: SK.Plg* activator complex of SKC2 (α_(STAB)-βG88-γ_(STAB)) (group A streptococcus (GAS), STAB902 | group G streptococcus (GGS), G88 | not stated)
[2] = biological target: SK.Plg* activator complex of SKC1 (αG88-β_(STAB)-γG88) (group G streptococcus (GGS), G88 | group A streptococcus (GAS), STAB902 | not stated)

Substance: plasminogen (natural protein)
- K m (µM), proteolytic constants: Plg activation by the SK.Plg* complex against substrate Plg 0.3 to 5.0 µM, S2251 hydrolysis at 405 nm, 37 °C [1]: 3.73 µM
- K m (µM), proteolytic constants: Plg activation by the SK.Plg* complex against substrate Plg 0.3 to 5.0 µM, S2251 hydrolysis at 405 nm, 37 °C [2]: 1.09 µM
